Biological target: the molecule itself
Assay: crystal structure

B1: WlbB, an N-acetyltransferase from Bordetella petrii (enzyme, UniProt A9IH93 1-190, looked up)
chain: MATIHPTAIVDEGARIGAHSRIWHWVHICGGAEIGEGCSLGQNVFVGNRVRIGNRVKIQNNVSVYDNVFLEDDVFCGPSMVFTNVYNPRAAIERKSEYRDTIVRQGATLGANCTVVCGATIGRYAFVGAGAVVNKDVPDFALVVGVPARQIGWMSRHGEQLDLPLRGNAEATCPHTGERYILTDGVCRLA
B1 was tested, and the “stoichiometry N” value was 3.

Reference: publication PMC2879449 (Biochemistry, 2010)
